T1: EsCas13d, nuclease-dead (Eubacterium siraeum, UniProt B0MS50, R295A;H300A;R849A;H854A)
T1 sequence: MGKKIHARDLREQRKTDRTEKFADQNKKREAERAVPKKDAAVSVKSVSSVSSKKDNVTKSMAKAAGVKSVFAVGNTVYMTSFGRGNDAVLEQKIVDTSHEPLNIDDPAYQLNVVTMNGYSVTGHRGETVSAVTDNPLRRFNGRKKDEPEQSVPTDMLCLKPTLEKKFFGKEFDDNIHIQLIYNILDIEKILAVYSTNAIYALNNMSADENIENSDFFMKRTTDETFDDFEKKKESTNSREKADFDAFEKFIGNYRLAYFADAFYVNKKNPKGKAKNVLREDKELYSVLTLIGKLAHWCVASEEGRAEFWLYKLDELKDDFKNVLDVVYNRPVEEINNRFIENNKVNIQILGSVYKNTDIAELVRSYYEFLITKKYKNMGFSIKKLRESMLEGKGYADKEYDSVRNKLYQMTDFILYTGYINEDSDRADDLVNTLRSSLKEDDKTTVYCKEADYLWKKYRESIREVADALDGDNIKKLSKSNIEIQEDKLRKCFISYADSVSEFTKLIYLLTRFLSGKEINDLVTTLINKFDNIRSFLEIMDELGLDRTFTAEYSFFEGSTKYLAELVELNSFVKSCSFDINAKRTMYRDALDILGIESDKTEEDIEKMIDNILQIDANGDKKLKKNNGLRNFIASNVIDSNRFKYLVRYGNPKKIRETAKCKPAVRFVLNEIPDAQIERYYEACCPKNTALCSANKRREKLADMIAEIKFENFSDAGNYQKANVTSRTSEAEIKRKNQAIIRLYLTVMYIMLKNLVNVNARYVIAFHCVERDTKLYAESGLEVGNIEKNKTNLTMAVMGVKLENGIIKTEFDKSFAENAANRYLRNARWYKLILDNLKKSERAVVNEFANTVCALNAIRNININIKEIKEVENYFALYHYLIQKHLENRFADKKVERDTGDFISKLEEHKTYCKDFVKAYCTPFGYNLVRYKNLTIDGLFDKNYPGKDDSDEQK

B1: target 2 MT 5'PFS AUU 3'PFS AGG (mixed)
RNA 1: CACCCGUGCAAAAUUGCAGGGGUCUAAAACCUUCUCCAAAUUGUUUCAUCCU
RNA 2: GGGAAUGGAUCCACAUCUACGAAUUCAUUAGGAUGAAACAAUUUGGAGAAGAGGAGAUCGGAAGAGCACACGU
B2: target 2 MT 5'PFS AUU 3'PFS CGG (mixed)
RNA 1: CACCCGUGCAAAAUUGCAGGGGUCUAAAACCUUCUCCAAAUUGUUUCAUCCU
RNA 2: GGGAAUGGAUCCACAUCUACGAAUUCAUUAGGAUGAAACAAUUUGGAGAAGCGGAGAUCGGAAGAGCACACGU
B3: target 2 MT 5'PFS GGA 3'PFS ACC (mixed)
RNA 1: CACCCGUGCAAAAUUGCAGGGGUCUAAAACCUUCUCCAAAUUGUUUCAUCCU
RNA 2: GGGAAUGGAUCCACAUCUACGAAUUCGGAAGGAUGAAACAAUUUGGAGAAGACCAGAUCGGAAGAGCACACGU
B4: target 2 MT 5'PFS AUU 3'PFS AGA (mixed)
RNA 1: CACCCGUGCAAAAUUGCAGGGGUCUAAAACCUUCUCCAAAUUGUUUCAUCCU
RNA 2: GGGAAUGGAUCCACAUCUACGAAUUCAUUAGGAUGAAACAAUUUGGAGAAGAGAAGAUCGGAAGAGCACACGU
B5: target 2 MT 5'PFS AUU 3'PFS AGC (mixed)
RNA 1: CACCCGUGCAAAAUUGCAGGGGUCUAAAACCUUCUCCAAAUUGUUUCAUCCU
RNA 2: GGGAAUGGAUCCACAUCUACGAAUUCAUUAGGAUGAAACAAUUUGGAGAAGAGCAGAUCGGAAGAGCACACGU
B6: target 2 MT 5'PFS UUG 3'PFS CUC (mixed)
RNA 1: CACCCGUGCAAAAUUGCAGGGGUCUAAAACCUUCUCCAAAUUGUUUCAUCCU
RNA 2: GGGAAUGGAUCCACAUCUACGAAUUCUUGAGGAUGAAACAAUUUGGAGAAGCUCAGAUCGGAAGAGCACACGU
B7: target 2 MT 5'PFS AGA 3'PFS UAC (mixed)
RNA 1: CACCCGUGCAAAAUUGCAGGGGUCUAAAACCUUCUCCAAAUUGUUUCAUCCU
RNA 2: GGGAAUGGAUCCACAUCUACGAAUUCAGAAGGAUGAAACAAUUUGGAGAAGUACAGAUCGGAAGAGCACACGU
B8: target 2 MT 5'PFS UAG 3'PFS UGC (mixed)
RNA 1: CACCCGUGCAAAAUUGCAGGGGUCUAAAACCUUCUCCAAAUUGUUUCAUCCU
RNA 2: GGGAAUGGAUCCACAUCUACGAAUUCUAGAGGAUGAAACAAUUUGGAGAAGUGCAGAUCGGAAGAGCACACGU
B9: target 2 MT 5'PFS CAU 3'PFS ACU (mixed)
RNA 1: CACCCGUGCAAAAUUGCAGGGGUCUAAAACCUUCUCCAAAUUGUUUCAUCCU
RNA 2: GGGAAUGGAUCCACAUCUACGAAUUCCAUAGGAUGAAACAAUUUGGAGAAGACUAGAUCGGAAGAGCACACGU
B10: target 2 MT 5'PFS AGA 3'PFS UAU (mixed)
RNA 1: CACCCGUGCAAAAUUGCAGGGGUCUAAAACCUUCUCCAAAUUGUUUCAUCCU
RNA 2: GGGAAUGGAUCCACAUCUACGAAUUCAGAAGGAUGAAACAAUUUGGAGAAGUAUAGAUCGGAAGAGCACACGU
B11: target 2 MT 5'PFS CGU 3'PFS CGC (mixed)
RNA 1: CACCCGUGCAAAAUUGCAGGGGUCUAAAACCUUCUCCAAAUUGUUUCAUCCU
RNA 2: GGGAAUGGAUCCACAUCUACGAAUUCCGUAGGAUGAAACAAUUUGGAGAAGCGCAGAUCGGAAGAGCACACGU
B12: target 2 MT 5'PFS AAC 3'PFS UGU (mixed)
RNA 1: CACCCGUGCAAAAUUGCAGGGGUCUAAAACCUUCUCCAAAUUGUUUCAUCCU
RNA 2: GGGAAUGGAUCCACAUCUACGAAUUCAACAGGAUGAAACAAUUUGGAGAAGUGUAGAUCGGAAGAGCACACGU
B13: target 2 MT 5'PFS UUG 3'PFS UUC (mixed)
RNA 1: CACCCGUGCAAAAUUGCAGGGGUCUAAAACCUUCUCCAAAUUGUUUCAUCCU
RNA 2: GGGAAUGGAUCCACAUCUACGAAUUCUUGAGGAUGAAACAAUUUGGAGAAGUUCAGAUCGGAAGAGCACACGU
B14: target 2 MT 5'PFS GAU 3'PFS UUC (mixed)
RNA 1: CACCCGUGCAAAAUUGCAGGGGUCUAAAACCUUCUCCAAAUUGUUUCAUCCU
RNA 2: GGGAAUGGAUCCACAUCUACGAAUUCGAUAGGAUGAAACAAUUUGGAGAAGUUCAGAUCGGAAGAGCACACGU
B15: target 2 MT 5'PFS GGA 3'PFS ACU (mixed)
RNA 1: CACCCGUGCAAAAUUGCAGGGGUCUAAAACCUUCUCCAAAUUGUUUCAUCCU
RNA 2: GGGAAUGGAUCCACAUCUACGAAUUCGGAAGGAUGAAACAAUUUGGAGAAGACUAGAUCGGAAGAGCACACGU
B16: target 2 MT 5'PFS GGA 3'PFS ACA (mixed)
RNA 1: CACCCGUGCAAAAUUGCAGGGGUCUAAAACCUUCUCCAAAUUGUUUCAUCCU
RNA 2: GGGAAUGGAUCCACAUCUACGAAUUCGGAAGGAUGAAACAAUUUGGAGAAGACAAGAUCGGAAGAGCACACGU
B17: target 2 MT 5'PFS GGA 3'PFS ACG (mixed)
RNA 1: CACCCGUGCAAAAUUGCAGGGGUCUAAAACCUUCUCCAAAUUGUUUCAUCCU
RNA 2: GGGAAUGGAUCCACAUCUACGAAUUCGGAAGGAUGAAACAAUUUGGAGAAGACGAGAUCGGAAGAGCACACGU
B18: target 2 MT 5'PFS AUU 3'PFS CGA (mixed)
RNA 1: CACCCGUGCAAAAUUGCAGGGGUCUAAAACCUUCUCCAAAUUGUUUCAUCCU
RNA 2: GGGAAUGGAUCCACAUCUACGAAUUCAUUAGGAUGAAACAAUUUGGAGAAGCGAAGAUCGGAAGAGCACACGU
B19: target 2 MT 5'PFS UAG 3'PFS UGU (mixed)
RNA 1: CACCCGUGCAAAAUUGCAGGGGUCUAAAACCUUCUCCAAAUUGUUUCAUCCU
RNA 2: GGGAAUGGAUCCACAUCUACGAAUUCUAGAGGAUGAAACAAUUUGGAGAAGUGUAGAUCGGAAGAGCACACGU
B20: target 2 MT 5'PFS AUU 3'PFS AGU (mixed)
RNA 1: CACCCGUGCAAAAUUGCAGGGGUCUAAAACCUUCUCCAAAUUGUUUCAUCCU
RNA 2: GGGAAUGGAUCCACAUCUACGAAUUCAUUAGGAUGAAACAAUUUGGAGAAGAGUAGAUCGGAAGAGCACACGU
B21: target 1 insC 3' of 9,insC 3' of 1 (mixed)
RNA 1: CACCCGUGCAAAAAUGCAGGGGUCUAAAACUGAGCGGAUAACCUCUCUAUGG
RNA 2: GGGAAUGGAUCCACAUCUACGAAUUCGUACCAUAGAGAGGUUACUCCGCUCACCCGAGAUCGGAAGAGCACACGU
B22: target 1 insU 3' of 18,insG 3' of 7 (mixed)
RNA 1: CACCCGUGCAAAAAUGCAGGGGUCUAAAACUGAGCGGAUAACCUCUCUAUGG
RNA 2: GGGAAUGGAUCCACAUCUACGAAUUCGUACCAUAUGAGAGGUUAUCGCGCUCACCGAGAUCGGAAGAGCACACGU
B23: target 1 insU 3' of 5,insA 3' of 4 (mixed)
RNA 1: CACCCGUGCAAAAAUGCAGGGGUCUAAAACUGAGCGGAUAACCUCUCUAUGG
RNA 2: GGGAAUGGAUCCACAUCUACGAAUUCGUACCAUAGAGAGGUUAUCCGUCAUCACCGAGAUCGGAAGAGCACACGU

For the data set, the target named is T1, EsCas13d, nuclease-dead. In words: crRNA (strand 1, pre-loaded); Mg2+; 40 mM Tris-HCl pH 7.5, 150 mM NaCl, 6 mM MgCl2, 1 mM DTT, 0.1% Tween-20, 0.2 mg/ml BSA; 25 C; 10 min per concentration, then washed. The note with it: tags: His6-TwinStrep-SUMO cleaved; N-terminal SNAP kept (SNAP-Surface 488); label: 3' end held by stalled T7 RNA polymerase.
Usually Kd stands for a measure of binding affinity in units of concentration. The low end stands for tighter binding, the high end for weaker binding. As to B1, the affinity, expressed as Kd, was 13 ± 2.9 nM.
The same measure for B2: 9.6 ± 1.7 nM.
For B3 the value was 14.1 ± 2.6 nM.
For B4 the value was 5.4 ± 0.8 nM; for B5, 6.4 ± 0.8 nM.
Molecule B6 yielded a Kd of 37 ± 8 nM.
B7 came in with a Kd of 6.5 ± 1.1 nM.
The same measure for B8: 2.73 ± 0.25 nM; for B9: 9 ± 1.9 nM.
For B10 the value was 7.4 ± 1.4 nM.
B11 returned a Kd of 11.1 ± 1.7 nM.
Regarding B12, the affinity, expressed as Kd, was 6.9 ± 1.2 nM.
For B13 the value was 64 ± 20 nM; for B14, 28 ± 7 nM.
For the molecule B15, the Kd turned out to be 9.8 ± 0.7 nM.
For B16 the value was 10.4 ± 1.2 nM.
For B17 the value was 13.9 ± 1.4 nM.
B18 displayed a Kd of 5.5 ± 0.4 nM.
For B19 the value was 4.9 ± 0.5 nM; for B20, 4.5 ± 0.4 nM.
For B21 the value was 9.4 ± 0.6 nM; for B22, 25.5 ± 1.2 nM.
The same measure for B23: 16.2 ± 1.2 nM.

Values taken from article PMC10786891, “Massively parallel profiling of RNA-targeting CRISPR-Cas13d”.
